Results from patent publication US20250352611A1, “METHODS FOR TREATING CATARACTS USING POLYPEPTIDES” (REJUKON BIOPHARM INC., priority 2022, published 2025).
Where no end group is shown, it is not given here.

T1: wild-type human full-length γD-crystallin (human, UniProt P07320 1-174)
T1 construct: It was uniformly 15N-labelled for the HSQC experiment and unlabelled for the turbidity assay; also called full-length wildtype γD-crystallin protein; 15N γD-crystallin
T1 sequence (looked up): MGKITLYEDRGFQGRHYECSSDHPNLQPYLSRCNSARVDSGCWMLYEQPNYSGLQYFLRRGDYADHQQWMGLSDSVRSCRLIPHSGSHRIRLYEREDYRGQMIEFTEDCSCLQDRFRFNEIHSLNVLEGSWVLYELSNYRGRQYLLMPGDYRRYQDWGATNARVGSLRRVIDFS


Legend:
G3BP1-GFP protein = molecular target: T2, G3BP1-GFP protein (Mus musculus, UniProt P97855); assay: G3BP1-GFP phase separated droplet dissolution, confocal laser microscope; format: biochemical; details: 60 uM polypeptide, 20 uM G3BP1-GFP
T2 construct: Genes of full-length mouse G3BP1, G3BP1-eGFP; thrombin protease cleavage site (C); His6 (C); made in house; host or cells: Escherichia coli rosetta (DE3)
Method: The prokaryotic expressed and purified G3BP1-GFP protein (pH7.5, 20 uM G3BP1-GFP) was induced to form phase separated droplets in vitro. Polypeptides Champ-E (RJK001), Champ-D (RJK002), Champ-K (RJK012) and Champ-Q (RJK005, […], SEQ ID NO: 34) (each of 60 uM) were added dropwise to the G3BP1-GFP droplets. The observation was performed continuously through a confocal laser microscope.
For G3BP1(FL)-eGFP, purified G3BP1(FL)-eGFP, Champ-E and its variants were changed were diluted to droplet buffer (50 mM Tris, pH 7.5, 150 mM NaCl) using SpinDesalt Column (smart). G3BP1(FL)-eGFP proteins were diluted to indicated concentrations and supplemented with PEG8000 with 1.25% final concentration for 10 min to induce phase separation as reported.

G3BP1 = molecular target: T3, G3BP1 (Mus musculus, UniProt P97855); assay: G3BP1 turbidity assay (OD395 nm); format: biochemical; details: G3BP1 30 μM, ratio range 0.75 to 25, room temperature, 10 minutes
T3 construct: Genes of full-length mouse G3BP1, G3BP1-eGFP; thrombin protease cleavage site (C); His6 (C); made in house; host or cells: Escherichia coli rosetta (DE3)
Method: The turbidity of G3BP1 (30 μM) in the presence of various concentrations of Champ-E, Champ-D, Champ-K, or Champ-Q was measured at a wavelength of 395 nm. Briefly, G3BP1 protein ([…]) and polypeptides Champ-E (RJK001), Champ-D (RJK002), Champ-K (RJK012) and Champ-Q (RJK005) were mixed well in a ratio range of 0.75 to 25 at room temperature for 10 minutes prior to turbidity assays. Absorbance at 395 nm (OD395 nm) was monitored at room temperature using Nanodrop ONE (Thermo Fisher Scientific, Inc.). […] The turbidity level reflects the degree of phase separation.
Briefly, the G3BP1 protein and the above-mentioned peptides were mixed at room temperature for 10 minutes prior to turbidity assays. 30 μM G3BP1 and peptide were mixed well in a ratio range of 0.75 to 25 before test. Absorbance at 395 nm (OD395 nm) was monitored at room temperature using Nanodrop ONE (Thermo Fisher Scientific, Inc.).
We followed the Turbidity Assays experiment as previously reported. Briefly, G3BP1 turbidity analysis were at room temperature and γD-crystallin protein was at 4° C. Proteins and Champ-E(RJK001), Champ-K, Champ-D or mutants are mixed at room temperature for 10 minutes prior to turbidity assays. 20 μM G3BP1 and 50 mg/ml(2.5 mM) γD-crystallin and peptide were mixed well in a ratio range of 0.75 to 25 before test. Absorbance at 395 nm (OD395 nm) was monitored at room temperature using Nanodrop ONE (Thermo Fisher Scientific, Inc.).

[1] = Half-life of cell-penetrating peptide fused Champ peptides in eukaryotic cells (western blot); format: in vitro ADME; details: SH-SY5Y cells harvested at 1 h, 4 h, 8 h and 24 h, western blot
Method: (§1) As described in Example 1, the polypeptide RJK001 was fused at its C-terminal with a cell-penetrating peptide ([…]) and the polypeptide RJK012 was fused at its N-terminal with a cell-penetrating peptide ([…]).
(§2) C-terminal fusion cell-penetrating peptide RJK001 and N-terminal fusion cell-penetrating peptide RJK012 were purified in vitro and added into SH-SY5Y cell. Cells were harvested at 1 h, 4 h, 8 h and 24 h respectively and were washed with PBS. Total proteins were extracted from SH-SY5Y cells with lysis buffer. Equal amounts of protein (20 μg) were separated by SDS-PAGE (15% separating gel). For data analysis, ImageJ was used to detect the Integrated density of each protein bands, and the ratio and half-life of Champ peptides were calculated by comparing with the positive control. […]
(§3) Cells were harvested at 1 h, 4 h, 8 h and 24 h respectively and were washed with PBS. […] For data analysis, quantification of the western blot bands was achieved using the software GELPRO (Media Cybernetics). The ratio and half-life of Champ peptides were calculated by comparing with the positive control. The presented quantitative data were calculated from three independent experiments.

[2] = system: γD (W42D) aggregates in the SH-SY5Y cell; assay: γD (W42D) aggregates in SH-SY5Y cells, live imaging and CellProfiler analysis; format: cell-based; details: added every 4 hours for a total of 24 hours
Method: Cells were grown in a 12-well plate (1×10^5 cells per well) for 24 hours and transfected with γD (W42D) plasmid using EZtrans transfection reagent. 24 hours after transfection, Champ peptides RJK001 (final concentration of 20 uM) and RJK0012 (final concentration of 10 uM and 20 uM) were added into SH-SY5Y cell culture medium every 4 hours for a total of 24 hours. The effect of RJK001 and RJK012 polypeptide on the γD (W42D) aggregates in the SH-SY5Y cell mode were analyzed using a custom CellProfiler software. Briefly, cell bodies were then segmented and identified by the GFP fluorescence channel images and tracing outward to the limits of the cytoplasmic (using a diameter cutoff of 100-300 pixels). The cell bodies were used as masks to eliminate imaging artifacts outside of cell boundaries, such as background fluorescence or dead cells. After masking, punctate structures were enhanced by image processing for speckle-like features that were 10 pixels in diameter for SH-SY5Y cells and these punctate structures were then annotated as features such as γD (W42D) puncta. Finally, the total image area which was enclosed in each of the identified features (number of cell and punctate) was calculated and output to spreadsheets. At least 200 cells per sample were analyzed. […]
Granules screen and assay images were segmented and image features quantified using a custom CellProfiler and ImageJ software. […] The effect of RJK001 and RJK012 polypeptide on the γD ([…]) aggregates in the SH-SY5Y cell mode were analyzed using a custom CellProfiler software. Briefly, cell bodies were then segmented and identified by the GFP fluorescence channel images and tracing outward to the limits of the cytoplasmic (using a diameter cutoff of 100-300 pixels). The cell bodies were used as masks to eliminate imaging artifacts outside of cell boundaries, such as background fluorescence or dead cells. […] Finally, the total image area which was enclosed in each of the identified features (number of cell and punctate) was calculated and output to spreadsheets. At least 200 cells per sample were analyzed.

[3] = molecular target: T1, wild-type human full-length …; assay: 1H-15N HSQC NMR chemical shift differences, 15N γD-crystallin with unlabeled RJK001 at 1:2
Method: Using final 300 uM human γD-crystallin at 25° C., the two-dimensional [¹H-¹⁵N] heteronuclear single quantum coherence (HSQC) spectra were recorded to determine the domain interactions at the residue-specific level.

SH-SY5Y cells = assay: Half-life of cell-penetrating peptide fused Champ peptides in eukaryotic cells (western blot); format: in vitro ADME
Method: as §1, §2, §3

Molecule	dissolution of G3BP1-GFP phase separated droplets (G3BP1-GFP protein; pH7.5, 40s after addition)	dissolution of G3BP1-GFP phase separated droplets (G3BP1-GFP protein; pH7.5, 120s after addition)	turbidity of G3BP1 (OD395 nm) (G3BP1)	other results
TDPQDDSDDDVDDPDDRQQTPDVVPDDSGTFYDQTVSNDLD [RJK002, Asp variant of Champ-E]	partially dissolved the phase separated droplets	dissolved more phase separated droplets	reduced the turbidity in a concentration dependent manner	–
TEPQEESEEEVEEPEERQQTPEVVPDDSGTFYDQTVSNDLEGGRKKRRQRRRHHHHHHHH	–	–	–	half-life [1]: ~8 h
TKPQKKSKKKVKKPKKRQQTPKVVPDDSGTFYDQTVSNDLK [RJK012, Lys variant of Champ-E]	significantly dissolved the phase separated droplets	–	reduced the turbidity in a concentration dependent manner	number of γD (W42D) aggregates in the SH-SY5Y cell ([2]; 10 uM): reduced the number of γD (W42D) aggregates in the SH-SY5Y cell in a time-dependent manner until 6 hours; number of γD (W42D) aggregates in the SH-SY5Y cell ([2]; 20 uM): reduced the number of γD (W42D) aggregates in the SH-SY5Y cell in a time-dependent manner until 12 hours
TQPQQQSQQQVQQPQQRQQTPQVVPDDSGTFYDQTVSNDLQ [RJK005]	–	did not dissolve the phase separated droplets	much less effect on the reduction of the turbidity	–
TEPQEESEEEVEEPEERQQTPEVVPDDSGTFYDQTVSNDLE (The peptide was unlabeled in the NMR experiment; also called short peptide RJK001) [Champ-E (RJK001)]	–	–	–	binding result [3]: binds
RQIKIWFQNRRMKWKKKTKPQKKSKKKVKKPKKRQQTPKVVPDDSGTFYDQTVSNDLKSGRPVLHHHHHH (peptide) RQIKIWFQNRRMKWKKKTKPQKKSKKKVKKPKKRQQTPKVVPDDSGTFYDQTVSNDLKSGRPVLHHHHHH	–	–	reduce the turbidity in a concentration dependent manner	half-life in eukaryotic cells (SH-SY5Y cells): about 8 hours
